Measurements reported in the supplement of paper PMC11780869.

Tested on: Bacillus subtilis
Experiment: cleaved RNA product abundance (RNA/gDNA barcode ratio) relative to median wild-type variant (ratio to wild type); higher = more accumulation of the downstream cleavage product
Settings: cleavage site: cggR-gapA (positions -7 to +36 mutated)
How it was run: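 The B. subtilis chromosome carried reporter mRNAs, truncated aprE or tetM, containing barcoded RNase Y cleavage-site windows mutagenized using oligos with a 9% error rate. After growth in LB at 37°C from OD600 0.0003 to 0.3, cleaved RNA was gel-selected, reverse transcribed and barcode-sequenced next to genomic DNA barcodes, with UMI collapsing. Each construct's RNA:gDNA barcode ratio was scaled to the median construct with the unmutated site. That scaled ratio is reported as cleaved product abundance.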

[1] = experiment (reporter, strain, medium): exp 4a: truncated aprE reporter, strain BJT201 with 2% xylose (RNase J1 expressed)
[2] = experiment (reporter, strain, medium): exp 2b: truncated aprE reporter, strain BJT200
[3] = experiment (reporter, strain, medium): exp 6: tetM reporter, strain 168

| Sequence | cleaved RNA product abundance [1] | cleaved RNA product abundance [2] | cleaved RNA product abundance [3] |
| --- | --- | --- | --- |
| ACAGACGAAGGAGCCGCAAAGAAGTTATTAAGGGATGAATAATCACTCAATCTAAATATCTCTCACTTATTTAAA | 0.0379 | – | – |
| ACAGACGAAGGAGCCGCAAAGAAGTTATTAAGGGATGAATAATCACTCACTATAAATATCTCTCACTTATTTAAA | 0.0806 | 0.0967 | – |
| ACAGACGAAGGAGCCGCAAAGAAGTTATTAAGGGATGAATAATCACTCAGTATAAATATCTCTCACTTATTTAAA | 0.0778 | – | – |
| ACAGACGAAGGAGCCGCAAAGAAGTTATTAAGGGATGAATAATCACTCGATATAAATATCTCTCACTTATTTAAA | 0.0689 | – | – |
| ACAGACGAAGGAGCCGCAAAGAAGTTATTAAGGGATGAATAATCACTCTATATAAATATCTCTCACTTATTTAAA | 0.155 | 0.0929 | – |
| ACAGACGAAGGAGCCGCAAAGAAGTTATTAAGGGATGAATAATCACTGAATATAAATATCTCTCACTTATTTAAA | 0.0697 | 0.0838 | – |
| ACAGACGAAGGAGCCGCAAAGAAGTTATTAAGGGATGAATAATCACTTAATATAAATATCTCTCACTTATTTAAA | 0.498 | 0.584 | – |
| ACAGACGAAGGAGCCGCAAAGAAGTTATTAAGGGATGAATAATCAGTCAATATAAATATCTCTCACTTATTTAAA | 0.0967 | – | – |
| ACAGACGAAGGAGCCGCAAAGAAGTTATTAAGGGATGAATAATCATTCAATATAAATATCTCTCACTTATTTAAA | 0.295 | 0.171 | – |
| ACAGACGAAGGAGCCGCAAAGAAGTTATTAAGGGATGAATAATCCAACAATATAAATATCTCTCACTTATTTAAA | 0.174 | 0.184 | – |
| ACAGACGAAGGAGCCGCAAAGAAGTTATTAAGGGATGAATAATCCACCAATATAAATATCTCTCACTTATTTAAA | 0.142 | 0.186 | – |
| ACAGACGAAGGAGCCGCAAAGAAGTTATTAAGGGATGAATAATCCATAAATATAAATATCTCTCACTTATTTAAA | 0.261 | 0.17 | – |
| ACAGACGAAGGAGCCGCAAAGAAGTTATTAAGGGATGAATAATCCATCAAAATAAATATCTCTCACTTATTTAAA | 0.221 | 0.132 | – |
| ACAGACGAAGGAGCCGCAAAGAAGTTATTAAGGGATGAATAATCCATCAACATAAATATCTCTCACTTATTTAAA | – | 0.164 | – |
| ACAGACGAAGGAGCCGCAAAGAAGTTATTAAGGGATGAATAATCCATCAATAAAAATATCTCTCACTTATTTAAA | 0.107 | 0.11 | – |
| ACAGACGAAGGAGCCGCAAAGAAGTTATTAAGGGATGAATAATCCATCAATACAAATATCTCTCACTTATTTAAA | 0.0901 | – | – |
| ACAGACGAAGGAGCCGCAAAGAAGTTATTAAGGGATGAATAATCCATCAATAGAAATATCTCTCACTTATTTAAA | 0.0602 | 0.0728 | – |
| ACAGACGAAGGAGCCGCAAAGAAGTTATTAAGGGATGAATAATCCATCAATATAAAAATCTCTCACTTATTTAAA | 0.145 | – | – |
| ACAGACGAAGGAGCCGCAAAGAAGTTATTAAGGGATGAATAATCCATCAATATAAATAACTCTCACTTATTTAAA | 0.185 | – | – |
| ACAGACGAAGGAGCCGCAAAGAAGTTATTAAGGGATGAATAATCCATCAATATAAATATCTCTCACTTATTTAAA | 0.23 | 0.184 | 0.201 |

| Sequence | cleaved RNA product abundance [1] | cleaved RNA product abundance [2] | cleaved RNA product abundance [3] |
| --- | --- | --- | --- |
| ACAGACGAAGGAGCCGCAAAGAAGTTATTAAGGGATGAATAATCCATCAATATAAATATTTCTCACTTATTTAAA | 0.286 | – | – |
| ACAGACGAAGGAGCCGCAAAGAAGTTATTAAGGGATGAATAATCCATCAATATAAATCTCTCTCACTTATTTAAA | 0.17 | – | – |
| ACAGACGAAGGAGCCGCAAAGAAGTTATTAAGGGATGAATAATCCATCAATATAAGTATCTCTCACTTATTTAAA | 0.0774 | – | – |
| ACAGACGAAGGAGCCGCAAAGAAGTTATTAAGGGATGAATAATCCATCAATATACATATCTCTCACTTATTTAAA | 0.296 | – | – |
| ACAGACGAAGGAGCCGCAAAGAAGTTATTAAGGGATGAATAATCCATCAATATATATATCTCTCACTTATTTAAA | 0.191 | 0.19 | – |
| ACAGACGAAGGAGCCGCAAAGAAGTTATTAAGGGATGAATAATCCATCAATGTAAATATCTCTCACTTATTTAAA | 0.0513 | 0.0896 | – |
| ACAGACGAAGGAGCCGCAAAGAAGTTATTAAGGGATGAATAATCCATCAATTTAAATATCTCTCACTTATTTAAA | 0.13 | – | – |
| ACAGACGAAGGAGCCGCAAAGAAGTTATTAAGGGATGAATAATCCATCATTATAAATATCTCTCACTTATTTAAA | – | 0.158 | – |
| ACAGACGAAGGAGCCGCAAAGAAGTTATTAAGGGATGAATAATCCATCCATATAAATATCTCTCACTTATTTAAA | 0.222 | – | – |
| ACAGACGAAGGAGCCGCAAAGAAGTTATTAAGGGATGAATAATCCATCGATATAAATATCTCTCACTTATTTAAA | 0.112 | – | – |
| ACAGACGAAGGAGCCGCAAAGAAGTTATTAAGGGATGAATAATCCATCTATATAAATATCTCTCACTTATTTAAA | – | 0.191 | – |
| ACAGACGAAGGAGCCGCAAAGAAGTTATTAAGGGATGAATAATCCATGAATATAAATATCTCTCACTTATTTAAA | 0.18 | – | – |
| ACAGACGAAGGAGCCGCAAAGAAGTTATTAAGGGATGAATAATCCATTAATATAAATATCTCTCACTTATTTAAA | 0.688 | 0.766 | 0.984 |
| ACAGACGAAGGAGCCGCAAAGAAGTTATTAAGGGATGAATAATCCCAAAATATAAATATCTCTCACTTATTTAAA | 0.31 | 0.306 | – |
| ACAGACGAAGGAGCCGCAAAGAAGTTATTAAGGGATGAATAATCCCACAAAATAAATATCTCTCACTTATTTAAA | 0.256 | – | – |
| ACAGACGAAGGAGCCGCAAAGAAGTTATTAAGGGATGAATAATCCCACAAGATAAATATCTCTCACTTATTTAAA | 0.187 | 0.158 | – |
| ACAGACGAAGGAGCCGCAAAGAAGTTATTAAGGGATGAATAATCCCACAATATAAAAATCTCTCACTTATTTAAA | 0.25 | – | – |
| ACAGACGAAGGAGCCGCAAAGAAGTTATTAAGGGATGAATAATCCCACAATATAAACATCTCTCACTTATTTAAA | 0.277 | – | – |
| ACAGACGAAGGAGCCGCAAAGAAGTTATTAAGGGATGAATAATCCCACAATATAAATAACTCTCACTTATTTAAA | – | 0.231 | – |
| ACAGACGAAGGAGCCGCAAAGAAGTTATTAAGGGATGAATAATCCCACAATATAAATATCTCTCACTTATTTAAA | 0.279 | 0.204 | 0.271 |

| Sequence | cleaved RNA product abundance [1] | cleaved RNA product abundance [2] | cleaved RNA product abundance [3] |
| --- | --- | --- | --- |
| ACAGACGAAGGAGCCGCAAAGAAGTTATTAAGGGATGAATAATCCCACAATATAAATATTTCTCACTTATTTAAA | 0.386 | – | – |
| ACAGACGAAGGAGCCGCAAAGAAGTTATTAAGGGATGAATAATCCCACAATATACATATCTCTCACTTATTTAAA | 0.249 | – | – |
| ACAGACGAAGGAGCCGCAAAGAAGTTATTAAGGGATGAATAATCCCACAATATATATATCTCTCACTTATTTAAA | 0.303 | – | – |
| ACAGACGAAGGAGCCGCAAAGAAGTTATTAAGGGATGAATAATCCCACAATATGAATATCTCTCACTTATTTAAA | 0.0667 | 0.107 | – |
| ACAGACGAAGGAGCCGCAAAGAAGTTATTAAGGGATGAATAATCCCACATTATAAATATCTCTCACTTATTTAAA | 0.152 | – | – |
| ACAGACGAAGGAGCCGCAAAGAAGTTATTAAGGGATGAATAATCCCACCATATAAATATCTCTCACTTATTTAAA | 0.228 | 0.16 | – |
| ACAGACGAAGGAGCCGCAAAGAAGTTATTAAGGGATGAATAATCCCACTATATAAATATCTCTCACTTATTTAAA | 0.282 | – | – |
| ACAGACGAAGGAGCCGCAAAGAAGTTATTAAGGGATGAATAATCCCAGAATATAAATATCTCTCACTTATTTAAA | 0.361 | – | – |
| ACAGACGAAGGAGCCGCAAAGAAGTTATTAAGGGATGAATAATCCCATAATATAAATATCTCTCACTTATTTAAA | 0.715 | – | – |
| ACAGACGAAGGAGCCGCAAAGAAGTTATTAAGGGATGAATAATCCCCAAATATAAATATCTCTCACTTATTTAAA | – | 0.336 | – |
| ACAGACGAAGGAGCCGCAAAGAAGTTATTAAGGGATGAATAATCCCCCAATATAAACATCTCTCACTTATTTAAA | 0.291 | – | – |
| ACAGACGAAGGAGCCGCAAAGAAGTTATTAAGGGATGAATAATCCCCCAATATAAATAACTCTCACTTATTTAAA | 0.347 | – | – |
| ACAGACGAAGGAGCCGCAAAGAAGTTATTAAGGGATGAATAATCCCCCAATATAAATATCTCTCACTTATTTAAA | 0.36 | 0.285 | 0.457 |
| ACAGACGAAGGAGCCGCAAAGAAGTTATTAAGGGATGAATAATCCCCCAATATACATATCTCTCACTTATTTAAA | 0.446 | – | – |
| ACAGACGAAGGAGCCGCAAAGAAGTTATTAAGGGATGAATAATCCCCCACTATAAATATCTCTCACTTATTTAAA | 0.3 | – | – |
| ACAGACGAAGGAGCCGCAAAGAAGTTATTAAGGGATGAATAATCCCCCTATATAAATATCTCTCACTTATTTAAA | 0.151 | – | – |
| ACAGACGAAGGAGCCGCAAAGAAGTTATTAAGGGATGAATAATCCCCTAATATAAATATCTCTCACTTATTTAAA | 1.25 | – | – |
| ACAGACGAAGGAGCCGCAAAGAAGTTATTAAGGGATGAATAATCCCCTCAATATAAATATCTCTCACTTATTTAA | 0.364 | 0.181 | – |
| ACAGACGAAGGAGCCGCAAAGAAGTTATTAAGGGATGAATAATCCCGAAATATAAATATCTCTCACTTATTTAAA | 0.323 | – | – |
